Blank lines part the entries; values can stand above or below the substance they belong to.
Legend:
[1] = molecular target: αvβ3 and αvβ5 integrins on cells that express both (M21, A375S2/A375S.2, HUVEC) (human) (UniProt P06756); test: cell-based or functional assay
[2] = molecular target: αvβ3 and αvβ5 integrins on cells that express both (M21, A375S2/A375S.2, HUVEC) (human) (UniProt P06756); test: flow cytometry on M21 cells; FITC-goat anti-human Fc-labeled CNTO95 at 2 µg/mL, saline instead of competitor
[3] = molecular target: αvβ3 and αvβ5 integrins on cells that express both (M21, A375S2/A375S.2, HUVEC) (human) (UniProt P06756); test: flow cytometry on M21 cells; FITC-goat anti-human Fc-labeled CNTO95 at 20 µg/mL, saline instead of competitor
[4] = molecular target: human αvβ3 integrin on cells (human) (UniProt P06756); test: flow cytometry on M21 cells; signal of the competitor FITC-labeled CNTO95 at 2 µg/mL; row antibody at 20 µg/mL; design: % Positive: reference not given here
[5] = molecular target: human αvβ3 integrin on cells (human) (UniProt P06756); test: flow cytometry on M21 cells; signal of the competitor FITC-labeled CNTO95 at 20 µg/mL; row antibody at 20 µg/mL
[6] = molecular target: human αvβ5 integrin on cells (human) (UniProt P06756); test: flow cytometry on M21 cells; signal of the competitor FITC-labeled CNTO95 at 2 µg/mL; row antibody at 20 µg/mL; design: % Positive: reference not given here
[7] = molecular target: human αvβ5 integrin on cells (human) (UniProt P06756); test: flow cytometry on M21 cells; signal of the competitor FITC-labeled CNTO95 at 20 µg/mL; row antibody at 20 µg/mL
[8] = scale: % of cell adhesion in the absence of antibody

minimal concentration for complete inhibition of MDAMB435L2 cell adhesion to vitronectin [1]: 1.5 µg/mL
A375S.2 cell adhesion to fibrin, antibody 10 µg/ml [1, 8]: 43.3
A375S.2 cell adhesion to fibrinogen, antibody 10 µg/ml [1, 8]: 11.4
A375S.2 cell adhesion to gelatin, antibody 10 µg/ml [1, 8]: 23.2
A375S.2 cell adhesion to vitronectin, antibody 10 µg/ml [1, 8]: 1.4
HUVEC adhesion to fibrin, antibody 10 µg/ml [1, 8]: 45.1
HUVEC adhesion to fibrinogen, antibody 10 µg/ml [1, 8]: 34.5
HUVEC adhesion to gelatin, antibody 10 µg/ml [1, 8]: 54.8
HUVEC adhesion to vitronectin, antibody 10 µg/ml [1, 8]: 3.3
MCF (median channel fluorescence) [2]: 4.33
MCF (median channel fluorescence) [3]: 14.3
Substance: CNTO 95 (antibody)

% Positive [4]: 110%
MCF (median channel fluorescence) [4]: 4.78
% Positive [5]: 93%
MCF (median channel fluorescence) [5]: 13.3
Substance: LM609 (antibody)

% Positive [6]: 112%
MCF (median channel fluorescence) [6]: 4.87
% Positive [7]: 101%
MCF (median channel fluorescence) [7]: 14.5
Substance: P1F6 (antibody)

% Positive [4]: 132%
MCF (median channel fluorescence) [4]: 5.73
% Positive [5]: 103%
MCF (median channel fluorescence) [5]: 14.7
Substance: m7E3 IgG (antibody)
